From publication PMC4160023 (Nature, 2013)

Target: the molecule itself
Assay: negative-stain electron microscopy

B1: hRegIIIα E114Q mutant (natural protein, human, UniProt Q06141 38-175, looked up)
chain: IRCPKGSKAYGSHCYALFLSPKSWTDADLACQKRPSGNLVSVLSGAEGSFVSSLVKSIGNSYSYVWIGLHDPTQGTQPNGEGWEWSSSDVMNYFAWERNPSTISSPGHCASLSRSTAFLRWKDYNCNVRLPYVCKFTD
- binding result: binds
